# US20200093922A1 (AGENCY FOR SCIENCE TECHNOLOGY AND RESEARCH, published 2020)
# Tests used:
# [1] = target: T1, biotinylated murine PD-L1 (murine, UniProt Q9EP73 19-238, limits assumed, biotinylated (site not stated)); experiment: blocking ELISA: biotinylated murine PD-L1 pre-incubated with Fab, then added to coated murine PD-1-Fc (blocked partner), streptavidin-HRP
# [2] = target: T2, murine PD-L1 coupled to human Fc (murine, UniProt Q9EP73 19-238, limits assumed); experiment: ELISA on coated murine PD-L1-Fc, Fab detected with anti-human Fab-HRP, absorbance 450-670 nm
# T2 construct: also called murine PD-L1-Fc; mouse PD-L1 coupled to Fc; not shown: human Fc
# T2 sequence (Q9EP73 19-238 limits assumed): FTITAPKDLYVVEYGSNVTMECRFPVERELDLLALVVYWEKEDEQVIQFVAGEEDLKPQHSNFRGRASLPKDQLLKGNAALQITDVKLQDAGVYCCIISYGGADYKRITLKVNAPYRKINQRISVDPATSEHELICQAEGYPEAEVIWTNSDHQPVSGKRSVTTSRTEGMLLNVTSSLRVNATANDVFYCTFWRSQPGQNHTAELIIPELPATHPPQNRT
# Procedure: After 90 minutes at room temperature under agitation and extensive washes, a goat anti-human Fab antibody coupled to HRP was added. One hour later, plates were washed and TMB substrate added. The reaction was stopped with 1M HCl and optical density measured at 450 nm with a reference at 670 nm.
# biotinylated human PD-L1 [3] = target: T3, biotinylated human PD-L1 (human, UniProt Q9NZQ7 19-238, limits assumed, biotinylated (site not stated)); experiment: blocking ELISA: biotinylated human PD-L1 pre-incubated with Fab, then added to coated human PD-1-Fc (blocked partner), streptavidin-HRP
# T3 sequence (Q9NZQ7 19-238 limits assumed): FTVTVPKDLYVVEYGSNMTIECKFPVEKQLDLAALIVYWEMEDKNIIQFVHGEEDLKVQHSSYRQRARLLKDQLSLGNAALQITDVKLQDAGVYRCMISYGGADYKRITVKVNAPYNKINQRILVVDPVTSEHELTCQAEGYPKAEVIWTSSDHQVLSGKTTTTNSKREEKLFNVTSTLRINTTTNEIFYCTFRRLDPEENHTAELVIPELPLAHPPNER
# [4] = target: T4, human PD-L1 expressed on transfected HEK 293 cells (human, UniProt Q9NZQ7 19-290); experiment: flow cytometry blocking assay: antibody mixed with human PD-1-PE (blocked partner), added to HEK293 cells transfected with human PD-L1
# T4 construct: whole, on cells; also called PD-L1 transfected cells; HEK293-6E cells transfected with human PD-L1
# T4 sequence (Q9NZQ7 19-290): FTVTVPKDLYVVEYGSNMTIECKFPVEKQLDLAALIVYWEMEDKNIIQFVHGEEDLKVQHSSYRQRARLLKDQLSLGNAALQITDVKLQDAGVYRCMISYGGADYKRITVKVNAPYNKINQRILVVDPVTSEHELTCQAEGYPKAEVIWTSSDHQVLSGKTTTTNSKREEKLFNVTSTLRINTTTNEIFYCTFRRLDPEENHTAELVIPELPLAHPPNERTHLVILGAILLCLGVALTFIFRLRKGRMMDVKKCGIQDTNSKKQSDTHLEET
# Source text: Cells were washed 3 times with PBS and all data were collected on a BD FACSCanto II (BD Bioscience) and analysed on BD FACSDiva software (BD Bioscience).
# [5] = target: T5, PD-L1 on MDA-MB-231 human breast cancer cells (human, UniProt Q9NZQ7 19-290); experiment: flow cytometry on MDA-MB-231 cells expressing PD-L1, MFI against IgG1 (nM)
# T5 construct: whole, on cells; also called cells expressing PD-L1
# T5 sequence (Q9NZQ7 19-290): as above
# biotinylated human PD-L1 [6] = target: T3, biotinylated human PD-L1; experiment: ELISA: antibody coated at 2 ug/mL, biotinylated human PD-L1 titrated (x axis Human PD-L1, nM), streptavidin-HRP
# Procedure: Binding was measured by ELISA. Antibodies were coated onto maxisorp plates at 2 μg/mL in coating buffer and incubated overnight at 4° C. The next day, plates were washed with wash buffer (PBS+0.05% Tween-20), and blocker with casein for 1 hour, at room temperature. Plates were then washed again using wash buffer. […] Plates were then washed again using wash buffer. […] Plates were then washed again using wash buffer. Finally, TMB was added to develop the ELISA; TMB conversion by HRP was stopped using 1M H-Cl.
# biotinylated human PD-L1 [7] = target: T3, biotinylated human PD-L1; experiment: avidity ELISA: biotinylated human PD-L1 at 0.2 ug/mL on neutravidin, antibody titrated (x axis IgG, nM), anti-human Fc-HRP
# Procedure: Neutravidin was coated onto maxisorp plates at 2 μg/mL in coating buffer and incubated overnight at 4° C. The next day, plates were washed with wash buffer (PBS+0.05% Tween-20), and blocker with casein for 1 hour, at room temperature. Plates were then washed again using wash buffer. […] Plates were then washed again using wash buffer. The different antibodies were then added at various concentrations, and incubated for 1 hour at room temperature. Plates were then washed again using wash buffer. Anti-human Fc-HRP was then added and incubated for 1 hour at room temperature. Plates were then washed again using wash buffer. Finally, TMB was added to develop the ELISA; TMB conversion by HRP was stopped using 1M H-Cl.
# [8] = target: PD-L1 (blocking ELISA of Example 13) (Homo sapiens (Human), UniProt Q9NZQ7 19-238); experiment: blocking ELISA: antibody pre-incubated with PD-L1, added to coated PD-1 (blocked partner), PD-1-bound PD-L1 detected
# Chain of PD-L1 (blocking ELISA of Example 13) (Q9NZQ7 19-238 limits assumed): as the sequence (Q9NZQ7 19-238 limits assumed) above
# [9] = target: T1, biotinylated murine PD-L1; experiment: blocking ELISA of murine PD-L1 binding to murine PD-1 (blocked partner), Example 3
# T1 sequence (Q9EP73 19-238 limits assumed): as the sequence (Q9EP73 19-238 limits assumed) above
binder,measurement,setting,value
"anti-PD-L1 antibody clone C2, Fab format (Fab, V domains shown, Tested as Fab) VH: QVQLQQSGAEVKKPGSSVKVSCKASGGTFSSYAISWVRQAPGQGLEWMGRIIPILGIANYAQKFQGRVTITADKSTSTAYMELSSLRSEDTAVYYCARGGSYGSLYAFDIWGQGTTVTVSS VL: SYELTQPPSVSVAPGKTTRITCGGDNIGRKSVHWYQQRPGQAPLLLVYDDGDRPSGIPDRFSGSNSGNTATLTISGTQAMDEADYYCQAWDSTVVFGGGTRLTVL",binding result,[1],binds
same,binding result,[2],binds
same,IC50 (read off the curve),biotinylated human PD-L1 [3],~50 nM
"anti-PD-L1 antibody H12_GL in IgG4 format (antibody, V domains shown, IgG4; also called H12_GL-IgG4) VH: QVQLVQSGAEVKKPGSSVKVSCKASGGTFSSYAISWVRQAPGQGLEWMGRIIPILGIANYAQKFQGRVTITADKSTSTAYMELSSLRSEDTAVYYCARSGHGYSYGAFDYWGQGTLVTVSS VL: QSVLTQPPSVSGAPGQRVTISCTGSSSNIGAGYDVHWYQQLPGTAPKLLIYGNSNRPSGVPDRFSGSKSGTSASLAITGLQAEDEADYYCQSYDSSLSGSYVVFGGGTKLTVL",IC50 (read off the curve),[4],~8 nM
"anti-PD-L1 antibody H12_GL in IgG1 format (antibody, V domains shown, H12 with its framework reverted to germline-like; IgG1; also called H12_GL-IgG1) VH: QVQLVQSGAEVKKPGSSVKVSCKASGGTFSSYAISWVRQAPGQGLEWMGRIIPILGIANYAQKFQGRVTITADKSTSTAYMELSSLRSEDTAVYYCARSGHGYSYGAFDYWGQGTLVTVSS VL: QSVLTQPPSVSGAPGQRVTISCTGSSSNIGAGYDVHWYQQLPGTAPKLLIYGNSNRPSGVPDRFSGSKSGTSASLAITGLQAEDEADYYCQSYDSSLSGSYVVFGGGTKLTVL",IC50 (read off the curve),[4],~8 nM
"anti-PD-L1 antibody clone C4, Fab format (Fab, V domains shown, Tested as Fab) VH: QVQLQQSGAEVKKPGSSVKVSCKASGGTFSSYAISWVRQAPGQGLEWMGRIIPILGIANYAQKFQGRVTITADKSTSTAYMELSSLRSEDTAVYYCARGGYGGNSLYAFDIWGQGTMVTVSS VL: QSVVTQPPSVSAAPGQKVTISCSGSSSNIGNNYVSWYQQLPGTAPKLLIYDNNERLSGIPDRFSGSKSGTSATLGISGLQTGDEADYYCGTWDSSLSVVVFGGGTKLTVL",binding result,[1],binds
same,binding result,[2],binds
same,IC50 (read off the curve),biotinylated human PD-L1 [3],~50 nM
"anti-PD-L1 antibody C4 in IgG1 format (antibody, V domains shown, also called C4 IgG1) VH: QVQLQQSGAEVKKPGSSVKVSCKASGGTFSSYAISWVRQAPGQGLEWMGRIIPILGIANYAQKFQGRVTITADKSTSTAYMELSSLRSEDTAVYYCARGGYGGNSLYAFDIWGQGTMVTVSS VL: QSVVTQPPSVSAAPGQKVTISCSGSSSNIGNNYVSWYQQLPGTAPKLLIYDNNERLSGIPDRFSGSKSGTSATLGISGLQTGDEADYYCGTWDSSLSVVVFGGGTKLTVL",EC50 (read off the curve),[5],~200 nM
"anti-PD-L1 antibody C4 (format not stated) (antibody, V domains shown) VH: QVQLQQSGAEVKKPGSSVKVSCKASGGTFSSYAISWVRQAPGQGLEWMGRIIPILGIANYAQKFQGRVTITADKSTSTAYMELSSLRSEDTAVYYCARGGYGGNSLYAFDIWGQGTMVTVSS VL: QSVVTQPPSVSAAPGQKVTISCSGSSSNIGNNYVSWYQQLPGTAPKLLIYDNNERLSGIPDRFSGSKSGTSATLGISGLQTGDEADYYCGTWDSSLSVVVFGGGTKLTVL",EC50 (read off the curve),biotinylated human PD-L1 [6],~0.8 nM
same,EC50 (read off the curve),biotinylated human PD-L1 [7],~1 nM
same,IC50 (read off the curve),[8],~2 nM
"anti-PD-L1 antibody H12 in IgG1 format (antibody, V domains shown, IgG1; also called H12 (IgG1); H12-IgG1) VH: EVQLVQSGAEVKKPGASVKVSCKASGGTFSSYAISWVRQAPGQGLEWMGRIIPILGIANYAQKFQGRVTITADKSTSTAYMELSSLRSEDTAVYYCARSGHGYSYGAFDYWGQGTL VL: QSVLTQPPSVSGAPGQRVTISCTGSSSNIGAGYDVHWYQQLPGTAPKLLIYGNSNRPSGVPDRFSGSKSGTSASLAITGLQAEDEADYYCQSYDSSLSGSYVVFGGGTKLTVL",IC50 (read off the curve),[9],~1 nM
same,EC50 (read off the curve),[5],~200 nM
same,IC50 (read off the curve),[4],~8 nM
"anti-PD-L1 antibody H12 in IgG4 format (antibody, V domains shown, IgG4; also called H12-IgG4) VH: EVQLVQSGAEVKKPGASVKVSCKASGGTFSSYAISWVRQAPGQGLEWMGRIIPILGIANYAQKFQGRVTITADKSTSTAYMELSSLRSEDTAVYYCARSGHGYSYGAFDYWGQGTL VL: QSVLTQPPSVSGAPGQRVTISCTGSSSNIGAGYDVHWYQQLPGTAPKLLIYGNSNRPSGVPDRFSGSKSGTSASLAITGLQAEDEADYYCQSYDSSLSGSYVVFGGGTKLTVL",IC50 (read off the curve),[4],~8 nM
